Target: WD repeat domain 5 (WDR5), human, endogenous in human mesenchymal stem cells (human, UniProt P61964 2-334)
Assay: Co-IP with HA antibody, stem cells from apical papilla overexpressing HA-KDM6B
Procedure: On the next day, the cells were added with Protein A/G beads and rotated on a rotary shaker at 4° C. for 2 hours. […] All cells were incubated overnight to form a complex of protein-antibody-agarose bead. […] (2) Grouping: Input group (loading amount of 25 μg); antibody group (loading amount of 800 μg, 2 μg of antibody); IgG group (loading amount of 800 μg, 2 μg of antibody). Samples were diluted with lysate. […] (3) Preparation of protein A/G beads

B1: HA-KDM6B (full-length KDM6B with HA tag, overexpressed in stem cells from apical papilla) (enzyme)
chain: MHRAVDPPGARAAREAFALGGLSCAGAWSSCPPHPPPRSAWLPGGRCSASIGQPPLPAPLPPSHGSSSGHPSKPYYAPGAPTPRPLHGKLESLHGCVQALLREPAQPGLWEQLGQLYESEHDSEEATRCYHSALRYGGSFAELGPRIGRLQQAQLWNFHTGSCQHRAKVLPPLEQVWNLLHLEHKRNYGAKRGGPPVKRAAEPPVVQPVPPAALSGPSGEEGLSPGGKRRRGCNSEQTGLPPGLPLPPPPLPPPPPPPPPPPPPLPGLATSPPFQLTKPGLWSTLHGDAWGPERKGSAPPERQEQRHSLPHPYPYPAPAYTAHPPGHRLVPAAPPGPGPRPPGAESHGCLPATRPPGSDLRESRVQRSRMDSSVSPAATTACVPYAPSRPPGLPGTTTSSSSSSSSNTGLRGVEPNPGIPGADHYQTPALEVSHHGRLGPSAHSSRKPFLGAPAATPHLSLPPGPSSPPPPPCPRLLRPPPPPAWLKGPACRAAREDGEILEELFFGTEGPPRPAPPPLPHREGFLGPPASRFSVGTQDSHTPPTPPTPTTSSSNSNSGSHSSSPAGPVSFPPPPYLARSIDPLPRPPSPAQNPQDPPLVPLTLALPPAPPSSCHQNTSGSFRRPESPRPRVSFPKTPEVGPGPPPGPLSKAPQPVPPGVGELPARGPRLFDFPPTPLEDQFEEPAEFKILPDGLANIMKMLDESIRKEEEQQQHEAGVAPQPPLKEPFASLQSPFPTDTAPTTTAPAVAVTTTTTTTTTTTATQEEEKKPPPALPPPPPLAKFPPPSQPQPPPPPPPSPASLLKSLASVLEGQKYCYRGTGAAVSTRPGPLPTTQYSPGPPSGATALPPTSAAPSAQGSPQPSASSSSQFSTSGGPWARERRAGEEPVPGPMTPTQPPPPLSLPPARSESEVLEEISRACETLVERVGRSATDPADPVDTAEPADSGTERLLPPAQAKEEAGGVAAVSGSCKRRQKEHQKEHRRHRRACKDSVGRRPREGRAKAKAKVPKEKSRRVLGNLDLQSEEIQGREKSRPDLGGASKAKPPTAPAPPSAPAPSAQPTPPSASVPGKKAREEAPGPPGVSRADMLKLRSLSEGPPKELKIRLIKVESGDKETFIASEVEERRLRMADLTISHCAADVVRASRNAKVKGKFRESYLSPAQSVKPKINTEEKLPREKLNPPTPSIYLESKRDAFSPVLLQFCTDPRNPITVIRGLAGSLRLNLGLFSTKTLVEASGEHTVEVRTQVQQPSDENWDLTGTRQIWPCESSRSHTTIAKYAQYQASSFQESLQEEKESEDEESEEPDSTTGTPPSSAPDPKNHHIIKFGTNIDLSDAKRWKPQLQELLKLPAFMRVTSTGNMLSHVGHTILGMNTVQLYMKVPGSRTPGHQENNNFCSVNINIGPGDCEWFAVHEHYWETISAFCDRHGVDYLTGSWWPILDDLYASNIPVYRFVQRPGDLVWINAGTVHWVQATGWCNNIAWNVGPLTAYQYQLALERYEWNEVKNVKSIVPMIHVSWNVARTVKISDPDLFKMIKFCLLQSMKHCQVQRESLVRAGKKIAYQGRVKDEPAYYCNECDVEVFNILFVTSENGSRNTYLVHCEGCARRRSAGLQGVVVLEQYRTEELAQAYDAFTLAPASTSR
notes: whole, on cells; Full-length protein expressed inside human SCAPs and pulled down from lysate with HA antibody; also called PQCXIN-HA-KDM6B; SCAPs-HA-KDM6B; not shown: HA tag
binding result: binds

Reference: US20250041387A1 (BEIJING STOMATOLOGICAL HOSPITAL CAPITAL MEDICAL UNIVERSITY, published 2025)
